The text below walks through data of US20190330336A1.

The target in assay [1] is HIS-tagged (ACRO) or biotinylated recombinant human LAG3 protein (human) (UniProt P18627). The assay is described as follows: FACS competition: antibody inhibits rhLAG3 binding to MHCII on DAUDI cells.
Assay [2] deals with human LAG3-Fc, R&D Systems #2319-L3 (human) (UniProt P18627). The assay is described as follows: SPR (Biacore), antibody captured on anti-Flag chip, human LAG3-Fc analyte, 25 C, 1:1 fit. (In general: Surface plasmon resonance follows binding to a sensor surface in real time, without labels.)
human LAG3-Fc, R&D Systems #2319-L3 (human), sequence (P18627 23-450): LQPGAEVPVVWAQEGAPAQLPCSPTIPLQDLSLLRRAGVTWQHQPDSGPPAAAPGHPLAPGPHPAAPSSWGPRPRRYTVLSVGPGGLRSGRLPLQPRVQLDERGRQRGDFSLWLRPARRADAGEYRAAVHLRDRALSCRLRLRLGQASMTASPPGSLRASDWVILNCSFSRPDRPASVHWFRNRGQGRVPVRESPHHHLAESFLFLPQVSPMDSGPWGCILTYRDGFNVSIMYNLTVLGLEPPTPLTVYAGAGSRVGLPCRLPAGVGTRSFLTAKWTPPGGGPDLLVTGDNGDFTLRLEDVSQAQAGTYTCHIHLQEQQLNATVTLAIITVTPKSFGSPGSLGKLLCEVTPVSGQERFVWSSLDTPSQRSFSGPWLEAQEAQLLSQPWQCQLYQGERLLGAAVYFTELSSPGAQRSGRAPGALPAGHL

HIS-tagged (ACRO) or biotinylated recombinant human LAG3 protein (human), sequence (P18627 23-450 limits assumed): as the sequence (P18627 23-450) above

B1: SRP1627-A02 (scFv, from a related filing, V domains shown, part only)
VH: QVQLVQSGAEVKKPGSSVKVSCKASGFNINDYFMHWVRQAPGQGLEWIARIDPWNGDTEYAPKFQGRVTITADESTSTAYMELSSLRSEDTAVYYCGMSDALDYWGQGTLVTVSS
VL: DVVMTQSPLSLPVTLGQPASISCKSSQSLLDSDGKTYLNWFQQRPGQSPRRLIYLVSKLDSGVPDRFSGSGSGTDFTLKISRVEAEDVGVYYCSHGNPVPQTFGQGTKVEIK
The IC50 is the concentration needed to halve the response being measured. What is called Kd is the free concentration of one partner at which half of the binding sites on the other are occupied at equilibrium, for simple one-to-one binding. A higher Kd goes with weaker binding. The koff is the rate constant with which the complex falls apart. A lower koff goes with a long-lived complex. Broadly, the kon is the rate constant with which the complex forms. Read a low kon as slower complex formation. For the molecule B1, the IC50 in assay [1] came to 1.7 nM. Also, in assay [2], the Kd turned out to be 43.3 nM, the koff stood at 0.071 s⁻¹ and the kon came to 1.64e+06 M⁻¹ s⁻¹.
